Key:
NOD1 = target: T1, NOD1 (UniProt Q9Y239 1-953); assay: co-IP with anti-GFP, GFP-IRGM and Flag-NOD1
T1 construct: also called Flag-NOD1
T1 sequence (looked up): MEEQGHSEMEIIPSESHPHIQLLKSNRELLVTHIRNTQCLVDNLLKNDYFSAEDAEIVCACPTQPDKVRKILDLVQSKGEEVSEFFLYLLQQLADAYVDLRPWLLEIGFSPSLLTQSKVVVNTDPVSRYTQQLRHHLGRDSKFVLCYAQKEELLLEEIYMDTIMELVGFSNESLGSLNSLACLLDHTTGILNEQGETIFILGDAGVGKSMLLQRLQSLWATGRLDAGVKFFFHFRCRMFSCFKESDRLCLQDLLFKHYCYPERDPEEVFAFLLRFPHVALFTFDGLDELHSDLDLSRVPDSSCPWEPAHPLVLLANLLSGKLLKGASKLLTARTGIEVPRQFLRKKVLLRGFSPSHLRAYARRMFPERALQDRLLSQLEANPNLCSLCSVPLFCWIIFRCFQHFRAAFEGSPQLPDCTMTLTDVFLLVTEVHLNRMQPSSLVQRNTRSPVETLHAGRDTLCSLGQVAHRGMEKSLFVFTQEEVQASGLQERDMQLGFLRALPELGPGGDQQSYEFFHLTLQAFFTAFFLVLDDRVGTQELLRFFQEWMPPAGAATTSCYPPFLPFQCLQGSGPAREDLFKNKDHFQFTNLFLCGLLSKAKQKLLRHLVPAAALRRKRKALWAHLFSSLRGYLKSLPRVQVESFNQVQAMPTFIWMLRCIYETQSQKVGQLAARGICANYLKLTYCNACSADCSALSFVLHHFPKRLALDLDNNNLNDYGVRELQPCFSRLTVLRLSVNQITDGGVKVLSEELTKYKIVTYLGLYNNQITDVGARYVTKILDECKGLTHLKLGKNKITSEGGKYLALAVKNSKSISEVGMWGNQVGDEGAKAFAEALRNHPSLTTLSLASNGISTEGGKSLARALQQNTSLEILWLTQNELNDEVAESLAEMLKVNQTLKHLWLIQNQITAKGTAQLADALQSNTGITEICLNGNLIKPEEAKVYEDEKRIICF

Rubicon = target: T2, Rubicon (UniProt Q92622 1-972, limits assumed); assay: co-immunoprecipitation, HEK293T cells expressing GFP-IRGM
T2 sequence (looked up): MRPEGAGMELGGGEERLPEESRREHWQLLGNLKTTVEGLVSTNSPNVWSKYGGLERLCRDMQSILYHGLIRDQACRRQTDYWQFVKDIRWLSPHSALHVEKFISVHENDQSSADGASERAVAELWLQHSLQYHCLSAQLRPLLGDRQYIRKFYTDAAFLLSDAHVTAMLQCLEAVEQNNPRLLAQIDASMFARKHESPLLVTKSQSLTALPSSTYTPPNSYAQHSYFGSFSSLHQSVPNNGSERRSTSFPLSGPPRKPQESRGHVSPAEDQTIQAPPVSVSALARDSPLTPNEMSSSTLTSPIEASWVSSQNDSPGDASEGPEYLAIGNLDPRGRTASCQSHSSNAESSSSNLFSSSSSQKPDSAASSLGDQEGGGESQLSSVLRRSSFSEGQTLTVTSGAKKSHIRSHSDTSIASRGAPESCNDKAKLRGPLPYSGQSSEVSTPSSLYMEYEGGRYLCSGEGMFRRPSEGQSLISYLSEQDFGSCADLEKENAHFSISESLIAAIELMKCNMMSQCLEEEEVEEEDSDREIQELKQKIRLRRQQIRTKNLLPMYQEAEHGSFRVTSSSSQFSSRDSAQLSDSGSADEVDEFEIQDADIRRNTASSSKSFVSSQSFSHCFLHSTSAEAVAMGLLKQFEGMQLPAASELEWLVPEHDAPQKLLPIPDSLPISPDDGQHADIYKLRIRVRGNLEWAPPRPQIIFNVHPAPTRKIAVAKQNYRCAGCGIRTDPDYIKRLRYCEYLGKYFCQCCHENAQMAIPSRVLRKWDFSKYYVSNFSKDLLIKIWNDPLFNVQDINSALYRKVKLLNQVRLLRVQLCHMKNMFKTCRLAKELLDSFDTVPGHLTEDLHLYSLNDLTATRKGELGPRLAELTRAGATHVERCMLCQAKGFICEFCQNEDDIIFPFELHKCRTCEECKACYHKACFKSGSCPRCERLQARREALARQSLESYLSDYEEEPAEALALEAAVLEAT

ATG14L = target: T3, ATG14L (UniProt Q6ZNE5 1-492); assay: co-IP of Flag-IRGM and endogenous ATG14
T3 construct: also called endogenous ATG14
T3 sequence (Q6ZNE5 whole entry): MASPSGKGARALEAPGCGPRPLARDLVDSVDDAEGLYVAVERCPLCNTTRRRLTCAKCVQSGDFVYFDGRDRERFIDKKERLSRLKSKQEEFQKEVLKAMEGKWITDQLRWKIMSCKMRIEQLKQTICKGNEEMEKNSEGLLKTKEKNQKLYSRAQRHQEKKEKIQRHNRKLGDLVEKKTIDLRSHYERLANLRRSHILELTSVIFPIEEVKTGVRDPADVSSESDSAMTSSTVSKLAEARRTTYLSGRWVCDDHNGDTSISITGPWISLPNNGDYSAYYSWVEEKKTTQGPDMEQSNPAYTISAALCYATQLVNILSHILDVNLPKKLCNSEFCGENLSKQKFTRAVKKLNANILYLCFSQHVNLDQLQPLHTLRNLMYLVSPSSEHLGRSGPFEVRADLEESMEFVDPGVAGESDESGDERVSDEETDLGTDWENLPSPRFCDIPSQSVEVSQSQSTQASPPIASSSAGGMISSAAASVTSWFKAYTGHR

B1: IRGM (human IRGM, isoform d) (other, UniProt A1A4Y4-4 1-202, looked up)
chain: MEAMNVEKASADGNLPEVISNIKETLKIVSRTPVNITMAGDSGNGMSTFISALRNTGHEGKASPPTELVKATQRCASYFSSHFSNVVLWDLPGTGSATTTLENYLMEMQFNRYDFIMVASAQFSMNHVMLAKTAEDMGKKFYIVWTKLDMDLSTGALPEVQLLQIRENVLENLQKERLACHEKYLKSTPENSTRPRNINLCS
notes: Stood in cell lysates as GFP-, Flag- or V5-tagged protein or as the endogenous protein, depending on the experiment; Isoform d is said to be used in all experiments; also called GFP-IRGM; GFP-IRGMd
NOD1
  binding result: binds
Rubicon
  binding result: no binding
ATG14L
  binding result: binds

Reference: patent US20180236024A1 (STC UNM, published 2018)
